Measured values: US20240116985A1 (published 2024)
Starred links: 1 amine or outer side, 2 acyl side, 3 side chain; linkers in the order of their positions; H or OH if unused. Positions of bridges follow the written chain, without caps; N, C: chain ends. Non-standard residues stand in square brackets, D forms with d. Primed or numbered codes have the meaning given here. *: point of attachment. PyrS2″ = (S)-3-amino-1-((pent-4-en-1-yloxy)carbonyl)pyrrolidine-3-carboxylic acid (stapling residue), C=CCCCOC(=O)N1CC[C@@](N[*:1])(C(=O)[*:2])C1; PyrS3″ = (S)-3-amino-1-((hex-5-en-1-yloxy)carbonyl)pyrrolidine-3-carboxylic acid (stapling residue), C=CCCCCOC(=O)N1CC[C@@](N[*:1])(C(=O)[*:2])C1; B5(16) = 2-amino-2-(pent-4-en-1-yl)hept-6-enoic acid = 2,2-bis(4-pentenyl)glycine (stitching residue), C=CCCCC(CCCC=C)(N[*:1])C(=O)[*:2]; B5(4) = 2,2-bis(4-pentenyl)glycine = 2-amino-2-(pent-4-en-1-yl)hept-6-enoic acid (stitching residue), C=CCCCC(CCCC=C)(N[*:1])C(=O)[*:2]; TfeGA = (S)-2-amino-3-((carboxymethyl)(2,2,2-trifluoroethyl)amino)propanoic acid, O=C([C@H](CN(CC(=O)[*:3])CC(F)(F)F)N[*:1])[*:2]; PyrS2 = (S)-3-amino-1-((pent-4-en-1-yloxy)carbonyl)pyrrolidine-3-carboxylic acid, C=CCCCOC(=O)N1CC[C@@](N[*:1])(C(=O)[*:2])C1; PyrS3 = (S)-3-amino-1-((hex-5-en-1-yloxy)carbonyl)pyrrolidine-3-carboxylic acid, C=CCCCCOC(=O)N1CC[C@@](N[*:1])(C(=O)[*:2])C1; B5(7) = 2-amino-2-(pent-4-en-1-yl)hept-6-enoic acid, two olefinic side chains, C=CCCCC(CCCC=C)(N[*:1])C(=O)[*:2]; 4MePipBz = 4-((4-methylpiperazin-1-yl)methyl)benzoyl on Lys side chain, CN1CCN(Cc2ccc(C(=O)*)cc2)CC1; MeBipipAc = 1'-methyl-[1,4'-bipiperidine]-4-carbonyl on Lys side chain, CN1CCC(N2CCC(C(=O)*)CC2)CC1; 35CF3PhPr = 3-(3,5-bis(trifluoromethyl)phenyl)propanoyl, O=C(CCc1cc(C(F)(F)F)cc(C(F)(F)F)c1)*; B5(3) = 2,2-bis(4-pentenyl)glycine (stitching residue), C=CCCCC(CCCC=C)(N[*:1])C(=O)[*:2]; Me3AdamantC = 3,5,7-trimethyladamantane-1-carbonyl, CC12CC3(C)CC(C)(C1)CC(C(=O)*)(C2)C3; AspSH = (S)-2-amino-4-mercapto-4-oxobutanoic acid, O=C(C[C@H](N[*:1])C(=O)[*:2])S[*:3]; MeMorphBz = 4-(morpholinomethyl)benzoyl on Lys side chain, O=C(c1ccc(CN2CCOCC2)cc1)*; B5 = 2-amino-2-(pent-4-en-1-yl)hept-6-enoic acid, C=CCCCC(CCCC=C)(N[*:1])C(=O)[*:2]; 22PhPr = 2,2-diphenylpropanoyl on Lys side chain, CC(C(=O)*)(c1ccccc1)c1ccccc1; AcLys″ = N6-acetyl-lysine, CC(=O)NCCCC[C@H](N[*:1])C(=O)[*:2]; Propanoyl(3-(1-naphthyl)) = O=C(CCc1cccc2ccccc12)*; Acetyl(4-Me-piperazin-1-yl) = CN1CCN(CC(=O)*)CC1; Phe(3-CONH2) = NC(=O)c1cccc(C[C@H](N)C(=O)O)c1; Phe(2-CF3) = N[C@@H](Cc1ccccc1C(F)(F)F)C(=O)O; Phe(2-CONH2) = NC(=O)c1ccccc1C[C@H](N)C(=O)O; Phe(2-Cl) = N[C@@H](Cc1ccccc1Cl)C(=O)O; Ala(cPent) = N[C@@H](CC1CCCC1)C(=O)O; Bta = N[C@@H](Cc1csc2ccccc12)C(=O)O; αAllylPro = C=CC[C@@]1(C(=O)O)CCCN1; Morpholinoacetyl = O=C(CN1CCOCC1)*; tBuAla = CC(C)(C)C[C@H](N)C(=O)O; 3Thi = N[C@@H](Cc1ccsc1)C(=O)O; AdamantC = not defined here; PyrS2(4) = not defined here; Octanoyl = CCCCCCCC(=O)*; Butyryl = CCCC(=O)*

Target: T1, B-cat-Halo (beta-catenin HaloTag fusion expressed in HEK293 cells) (Homo sapiens (Human), UniProt P35222 1-781)
T1 sequence: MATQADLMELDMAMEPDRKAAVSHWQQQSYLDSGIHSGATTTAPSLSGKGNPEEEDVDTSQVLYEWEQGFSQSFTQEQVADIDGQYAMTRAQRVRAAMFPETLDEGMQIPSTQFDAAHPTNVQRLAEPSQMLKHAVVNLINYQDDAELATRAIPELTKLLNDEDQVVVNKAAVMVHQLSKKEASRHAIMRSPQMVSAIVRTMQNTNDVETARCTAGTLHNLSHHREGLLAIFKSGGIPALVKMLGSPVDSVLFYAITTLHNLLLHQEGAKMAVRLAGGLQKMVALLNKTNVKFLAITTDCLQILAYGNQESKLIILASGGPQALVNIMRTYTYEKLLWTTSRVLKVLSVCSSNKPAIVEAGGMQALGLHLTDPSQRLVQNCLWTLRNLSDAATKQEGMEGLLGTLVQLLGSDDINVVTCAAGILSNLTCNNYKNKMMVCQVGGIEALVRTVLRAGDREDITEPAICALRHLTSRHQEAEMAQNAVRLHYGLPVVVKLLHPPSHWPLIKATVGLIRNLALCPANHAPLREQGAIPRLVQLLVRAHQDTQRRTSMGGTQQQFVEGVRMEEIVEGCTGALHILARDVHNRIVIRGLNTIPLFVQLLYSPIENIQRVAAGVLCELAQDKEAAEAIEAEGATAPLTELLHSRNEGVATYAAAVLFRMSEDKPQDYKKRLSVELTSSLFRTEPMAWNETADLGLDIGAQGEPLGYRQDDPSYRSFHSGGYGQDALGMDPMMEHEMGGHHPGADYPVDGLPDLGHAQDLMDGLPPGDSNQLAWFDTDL
Experiment: cell-based or functional assay

| Binder | NanoBRET % inh @ 10 uM | NanoBRET Abs IC50 |
| --- | --- | --- |
| Ac-[αAllylPro]D[tBuAla][B5(3)]DDAAFN[PyrS3″][3Thi][Bta]N[dA]-NH2 (staple 1-4, 4-11) [I-835] | 27.6% |  |
| Ac-[αAllylPro]D[tBuAla][B5(3)]DNAAFN[PyrS2″][3Thi][Bta]Q-NH2 (staple 1-4, 4-11) [I-836] |  | 16.9 µM |
| Ac-[αAllylPro]D[tBuAla][B5(7)]DDAAFN[PyrS3][3Thi][Bta]Q[dA]-NH2 (staple 1-4, 4-11) [I-831] | 32.4% |  |

Target: T2, B-cat-Halo (UniProt P35222 1-781)
T2 sequence (looked up): T1 sequence
Experiment: cell-based or functional assay

| Binder | NanoBRET Abs IC50 |
| --- | --- |
| Ac-[αAllylPro]D[tBuAla][B5(4)]D[TfeGA]AAFL[PyrS2″]F[Bta]Q-NH2 (staple 1-4, 4-11; also: -CH=CH- in each staple reduced to -CH2-CH2-) [I-1711] | 33.3 µM |
| Ac-[αAllylPro]D[tBuAla][B5(4)]D[TfeGA]AAFL[PyrS2″][Ala(cPent)][Bta]Q-NH2 (staple 1-4, 4-11; also: -CH=CH- in each staple reduced to -CH2-CH2-) [I-1713] | > 20 µM |
| Ac-[αAllylPro]D[tBuAla][B5(4)]D[TfeGA]AAFL[PyrS2″][Phe(2-CF3)][Bta]Q-NH2 (staple 1-4, 4-11; also: -CH=CH- in each staple reduced to -CH2-CH2-) [I-1714] | 28.6 µM |
| Ac-[αAllylPro]D[tBuAla][B5(16)]D[TfeGA]AAFL[PyrS2″][3Thi][Bta]N-NH2 (staple 1-4, 4-11) [I-1705] | 2.9 µM |
| Ac-[αAllylPro][AspSH][tBuAla][B5]DDAAFN[PyrS2][Phe(2-Cl)][Bta]Q-NH2 (staple 1-4, 4-11; not fully specified) [I-1721] | > 20 µM |
| Ac-[αAllylPro]D[tBuAla][B5(4)]D[TfeGA]AAFL[PyrS2″][3Thi][Bta][AcLys″]-NH2 (staple 1-4, 4-11; also: -CH=CH- in each staple reduced to -CH2-CH2-) [I-1719] | 27.6 µM |
| Ac-[αAllylPro]D[tBuAla][B5(4)]D[TfeGA]AAFL[PyrS2″][3Thi][Bta]T-NH2 (staple 1-4, 4-11; also: -CH=CH- in each staple reduced to -CH2-CH2-) [I-1716] | 21.7 µM |
| Ac-[αAllylPro]D[tBuAla][B5(16)]D[TfeGA]AAFL[PyrS2″][Phe(2-CF3)][Bta]Q-NH2 (staple 1-4, 4-11) [I-1704] | 5.3 µM |
| Ac-[αAllylPro]D[tBuAla][B5(4)]D[TfeGA]AAFL[PyrS2″][3Thi][Bta][Phe(3-CONH2)]-NH2 (staple 1-4, 4-11) [I-1708] | 11.9 µM |
| Ac-[αAllylPro]D[tBuAla][B5(4)]D[TfeGA]AAFL[PyrS2″][3Thi][Bta]N-NH2 (staple 1-4, 4-11; also: -CH=CH- in each staple reduced to -CH2-CH2-) [I-1715] | 38.4 µM |
| Ac-[αAllylPro]D[tBuAla][B5]D[TfeGA]AAFL[PyrS2][Ala(cPent)][Bta]Q-NH2 (staple 1-4, 4-11) [I-1703] | 6.6 µM |
| Ac-[αAllylPro]D[tBuAla][B5(4)]D[TfeGA]AAFL[PyrS2″][3Thi][Bta][Phe(2-CONH2)]-NH2 (staple 1-4, 4-11) [I-1707] | 6.1 µM |

Target: T3, B-cat-Halo (beta-catenin HaloTag NanoBRET construct expressed in HEK293 cells) (UniProt P35222 1-781)
T3 sequence (looked up): T1 sequence
Experiment: cell-based or functional assay

| Binder | NanoBRET Abs IC50 |
| --- | --- |
| Ac-[αAllylPro]D[tBuAla][B5(3)]DDAAFN[PyrS2″][3Thi][Bta]QK(MeMorphBz)-NH2 (staple 1-4, 4-11) [I-909] | 28.4 µM |
| Ac-[αAllylPro]D[tBuAla][B5(3)]DDAAFN[PyrS2][3Thi][Bta]QK(35CF3PhPr)-NH2 (staple 1-4, 4-11) [I-902] | 21.2 µM |
| Ac-[αAllylPro]D[tBuAla][B5(3)]DDAAFN[PyrS2″][3Thi][Bta]QK(4MePipBz)-NH2 (staple 1-4, 4-11) [I-908] | 26 µM |
| Ac-[αAllylPro]D[tBuAla][B5(3)]DDAAFN[PyrS2″][3Thi][Bta]QK(Propanoyl(3-(1-naphthyl)))-NH2 (staple 1-4, 4-11) [I-903] | 7.8 µM |
| Ac-[αAllylPro]D[tBuAla][B5(3)]DDAK(AdamantC)FN[PyrS2(4)][3Thi][Bta]Q-NH2 (staple 1-4, 4-11; reading uncertain) [I-899] | > 20 µM |
| Ac-[αAllylPro]D[tBuAla][B5(3)]DDAK(MeMorphBz)FN[PyrS2″][3Thi][Bta]Q-NH2 (staple 1-4, 4-11) [I-890] | > 20 µM |
| Ac-[αAllylPro]D[tBuAla][B5(3)]DDAAFN[PyrS2″][3Thi][Bta]QK(Acetyl(4-Me-piperazin-1-yl))-NH2 (staple 1-4, 4-11) [I-906] | 26.5 µM |
| Ac-[αAllylPro]D[tBuAla][B5(3)]DDAAFN[PyrS2″][3Thi][Bta]QK(22PhPr)-NH2 (staple 1-4, 4-11) [I-904] | 20 µM |
| Ac-[αAllylPro]D[tBuAla][B5(3)]DDAAFN[PyrS2″][3Thi][Bta]QK(Morpholinoacetyl)-NH2 (staple 1-4, 4-11) [I-905] | 31.6 µM |
| Ac-[αAllylPro]D[tBuAla][B5(3)]DDAK(Octanoyl)FN[PyrS2][3Thi][Bta]Q-NH2 (staple 1-4, 4-11; not fully specified) [I-898] | > 20 µM |
| Ac-[αAllylPro]D[tBuAla][B5(3)]DDAK(Butyryl)FN[PyrS2][3Thi][Bta]Q-NH2 (staple 1-4, 4-11) [I-897] | > 20 µM |
| Ac-[αAllylPro]D[tBuAla][B5(3)]DDAAFN[PyrS2″][3Thi][Bta]QK(MeBipipAc)-NH2 (staple 1-4, 4-11) [I-907] | 27.8 µM |
| Ac-[αAllylPro]D[tBuAla][B5(3)]DDAK(Me3AdamantC)FN[PyrS2][3Thi][Bta]Q-NH2 (staple 1-4, 4-11) [I-900] | > 20 µM |
| Ac-[αAllylPro]D[tBuAla][B5(3)]DDAK(mPEG2)FN[PyrS2][3Thi][Bta]Q-NH2 (staple 1-4, 4-11; not fully specified) [I-892] | > 20 µM |
| Ac-[αAllylPro]D[tBuAla][B5(3)]DDAK(4MePipBz)FN[PyrS2″][3Thi][Bta]Q-NH2 (staple 1-4, 4-11) [I-889] | > 20 µM |
